Assay: label from the status in PepcDB records

Sequence | protein production
MYEVELKGYANDEIFEKVRETFEFMRKEIHEDIYYQHPCRDFSKTDEALRIRIKRFNGHNEVFLTYKGPKIDEKSKTRLEIEVEIQEDVDKYFELLDRLGFKEVLKVVKTREKYYVEKGVTITLDEVEGLGKFIEIETLVKEKDEIPEAVEKLEKILRELGVEKFERRSYLELLLEKRTELNI | not failed
MPTPTYPKASLIIRERGLPKREVLLSPDRQWTIGRQLDCSIRLTDAYVSRLHAVINAFLFRGQPLYFIRDAHSRNGTFLNGFPLQHSTLLHHEDVIGVGTTLLVFYYPDMFREISLDECPELTKGSTDSLPWRS | failed
MTDNKIKNEDGKLELIINAAQKRFAHYGLCKTTMNEIASDVGMGKASLYYYFPDKETLFEAVIKKEQNVFFDEMDKILNSGIDATALLKKYVKLRSLHFRHLLNLSKLRSDFFHNTKPVFAKAFESFKQKEVEIVAGIIQYGITTKEFKRGNKHENAEFLVHLLLGVRMVKLKYKEINDFDESDYEDLDKNMCKVAGMFLKEIQTEVASR | not failed
MENEKLPYISVIIIAYNRKEFLLDAIKSALNQTLDREYYEIIVIKNFQDDTIDNFIKENNIKGIISENKSLGGKISEALYVSKGEIVSFLEDDDLFFPNKLREVYDIFISNPNLVYYHNNFIKTNNRLFEIDYSENKKNKKIFLKLIELNNIKTINYLISKKLIAFNMSAITIRKSYFNDCLDILENIRIAHDMCFFFCLSGKSDTSKEILIYDKPLSIWFIHNSWSNTSCDLEIKNFKNKNFTIAKETLNAIVYIFNEFCIKNNLYNFYDNKQPLCDYLKLTISARKSQLYLLNEYEININDIKLFFKFVTMRKSIYLSGAFILVLFGKFISKKLSTKIFLYISFLLNTI | failed
MRDWPAFLLALLVAFALWYSLQERAPVVERSLKVPLQVVGLGEGRRALGLPREVLLRLRGPAPLLEGRALPVSAYLDLSGAEGEVVREVRVAAPQGVEVLEVVPARVGVVVEVEAQRQIPVEVLAQGAWVLTDPAFVEAVGPESQVEAAVSAVGLDLGDEVVLFPLGPEGPLEGVELRPNRVRVVERREALFLKEVPLSLNPPPGRRLLDYAPKTVRLVGPREALEGLAGVTATLQEALGPGEVEVAVAPDLPPGVHTLGPVRVRVALELEHHHHHH | failed
MSAAIAALAASYGSGSGSESDSDSEGSRCPLPAADSLMHLTKSPSAKPSLTVAVDSAPEVAVKEDLETGVHLDPAVKEVQYNPTYETMFAPELLPSHXSXPFEQWHHPRELPTGTRVPAPVTXALFPQERGSVICTCLLSGYALDPSLDNHQVSAKYIGSVEDAEKNQGLTVFETGQKKTEKRKKFKENDASNIDGFLGPWAKYVDEKDVAKPSEEEQKELDEITAKRQKKGKQEEEKPGEEKTILHVKEMYDYQGRSYLHIPQDVGVNLRSSVPPEKCYLPKKQIHVWSGHTKGVSAVRLFPLSGHLLLSCSMDCKIKLWEVYGDRRCLRTFIGHSKAVRDICFNTAGTQFLSAAYDRYLKLWDTETGQCISRFTNRKVPYCVKFNPDEDKQNLFVAGMSDKKIVQWDIRSGEIVQEYDRHLGAVNTIVFVDENRRFVSTSDDKSLRVWEWDIPVDFKYIAEPSMHSMPAVTLSPNGKWLACQSMDNQILIFGAQNRFRLNKKKIFKGHMVAGYACQVDFSPDMSYVISGDGNGKLNIWDWKTTKLYSRFKAHDKVCIGAVWHPHETSKVITCGWDGLIKLWD | failed
MLWRPVGHGVEALYLATPLGRRVGYGVYVYRYRGLLVDTGPPKARPFAPEAALLTHAHEDHAGGAFRLGLPVYGSALTAALVAAPKPLRLYRRLVWGSPRPAQVEVAERVGPLHLLPTPGHAPDHVALYDPEAGLFFGGDLFLGVRASLATPGFDLQALLQSLRRALALKPRAFYCAHAGPLQAPLEALQAKLDFLEGKREEALRLKARGLTPKEALRRLFGGESPLALLSGGEMSRLAFVEALMMEP | failed
MDIKYKFPFALIIASAALVGCTSNQVKKEEAKPNPLPKLAQTQTQALVPIFSQSVSSMPKADPLRLQLDTLNGVIFVPDPKGKVSAYRGKERLWTTRVTKHRLTAGTVAGEGIVVVGNIKGELIALDQQTGQQKWKAQLTGAVLSPSLIYQGRVTTIANDGTVFAHDAETGQQVWTYKMPTIQFSLRGQPSPVMLDDRTVVVASANGYVYGIDVISGVPRFQRRVAVSEGRSDIQRLIDIDGDPVVSGQYLVTVSYQGQVTVTDLTNLSVVWNQDASSNKRPAVYDNKVFVAQADGKLTAYDLGTGSKLWESDVLLNRQLSNPVMLGKDLVVGDLDGVIHLINPDSGQLIGRAKTRGEVSSLRVVDGHLYTSTRKGALTIWEVR | failed
MKIAVVGGTGLVGQGILLELSKDTTLELHSISRNGKRPNSIAGVNYHSFDLAHDTSWHSLLQTSDWVIDCVGILLPNKSKNQTYENSSIEPAKLIIDSIANFDNKFLFISANSAPFFLNNYLHAKRTVENYASRKLGNRAISVYPGLVYSKFRRSNYYPAVILDFLLKFKLFSFLRKFRPISRERFAKEIHYIIEGKNSSLTYRI | failed
TWTDIRYREEGNAGFLSFSFPGGAMSTAQCRRLLDAYRDACTRPTSVLVLGGERDFFSNGIHLNVIEAADDPGAESWANINAIDDLVEAVLTTTDR | failed
MSHIQRETSCSRPRLNSNLDADLYGYRWARDNVGQSGATIYRLYGKPNAPELFLKHGKGSVANDVTDEMVRLNWLTAFMPLPTIKHFIRTPDDAWLLTTAIPGKTAFQVLEEYPDSGENIVDALAVFLRRLHSIPVCNCPFNSDRVFRLAQAQSRMNNGLVDASDFDDERNGWPVEQVWKEMHKLLPFSPDSVVTHGDFSLDNLIFDEGKLIGCIDVGRVGIADRYQDLAILWNCLGEFSPSLQKRLFQKYGIDNPDMNKLQFHLMLDEFF | not failed
MWWPGTVIGVGAGFAVASIPGALLGALLGQAIDRRLRLQGWEDMRERLGGRPALRDDELLFVMLGRLAKCDGRVAEQHIQQARQEMVRLDLAEAARLRAINAFNRGKAGKDRLGGHLRRISQQPHAAEGTLRACWRMVWADGKMGNKERELLLDWGQKLGMSRRQVQAMSLEYEPRKATGAESVPMTYAAALRLLAVDADTDTDKVKQAYRRLVSRHHPDKLAGTGASEAQVREATARTRELHQAYAMIRKRRGL | failed
MTRYLALDAFRGITIALMILVNTPGTWSHVYAPLLHAEWDGATPTDLVFPFFLFIIGSAMFFSFKKSNFSASPEQFRKIIKRGFIMFFIGFMLNVIPFTVNAEDWRIMGILQRIGIAYTVAACLVLTLNRTGVFIASAVILLAYWALLLSMGEGALTIEGNIIRQLDLAVFGANHMYTMRGVAFEPEGLLSTIPAIVNMLLGFELTRYLTSIEDKRSSVIKLTLIGGLAVGFGALWGLVLPINKSLWTPSYVIYSTGFACLLLAAFIWLIDIMKQVKLAEPLLVYGTNPLFVYVLSFLVVTMYLNINVGDVSMYAWLYKQLSGVFTPKLASFIFAFSHVAFFWYVSLKLYQRKIFIKI | failed
MSELILVRHGQATPFEKATDRLSALGEQQARAVGAALTAQGVRPTHVLHGSLVRQRRTAELAGEGQTGNEPGWPAPTLDPRLSEFDGDGLVTTLAPLLAQQDAEFGTLATTFREHRDSPERNRHFQRMLEALAAAWQAGTVTHPEVEGWADFRARVRAGLGDVLRLPAGTTAVLFTSGGVIGLAVALALDAPDASALKLNWRVKNGSLTRFTFGGGRLSLDSFNEEGHLTPELRSWR | failed
MSQEIAVIGSPAFTTGFQLAGVRKVENVADDEKDDDLDAAVEAVLADEDVGIAVMHDDDLAHLSRGVRQSVEASVEPTFVTIGGGASGASGLRDQIKRAIGIDLMDDDDDASAADTEAGDLEHHHHHH | not failed
MAKVCYFTGRKTVSGNNRSHAMNKTKRVVKPNLQKVTVLIDGKPKKVWASARALKSGKVERVLEHHHHHH | failed
MNYQLFKHSDENASYVVFSSGLGGHGSFWQAQLDVFRQYFHVLIYDQEGCHASSELLADGYSFEHLALQVKQLLQQLNIVRFHFIGHALGGFIGIELAHRYASETCQLLSLTLINAWQQLDPHTLRCFTTRIALLQHAGTAAYLHAQALFLYPPLWISEHTALLEQQEAKMQSDFPPHANVLKRLNALMQYQVNTARIDTLKQLPVCLIANQDDMLVPYVQSLNLWKKLPDAQLKLLPYGGHASTVTEARQVNQLMLDFLK | failed
MEIHSSAAAEVFPVCRSLLGKLPAHSHNRSVAPTVCDYYPQIMKTYNSKMTTQHSSDIRNSQNISASFVTPHDAPVTSRKYVPKFNSNNHRIKTAAAFEKGSDIYHAVRPNYPNSVIELLNLSPNSRVLDIGCGTGKLTEQIAQQTSSVYALDPSKDMLDSFRSTLDIPSWQATAEQTAVSDSRFSTLTCAQTWHWVEPLAASAELDRISTDDAQLLLVWNTLDVSVPWVHRLSRIMHSGDTLAEGFIPHVAQPWELVSVLRGKHAQELYPDQIHTLAHTRSYWLRASEKTREKLTHNLSWYLTDHLELPSTSLVEIPYRFDAFLYKKALVKTQ | failed
MLKNHPKGLISASLTNMGERFGFYIMMGILLLFLQAKFGLSGKEASVIYSIFYASVYVLALVGGIIADSMKNYKGTILVGLIVMAAGYVMLGIPTPTQATGMTPWLIFTCAALAFISFGNGLFKGNLQALVGRMYDNDTYRDKRDSGFSLFYMFINVGAVFAPLVAVAIRNWWVQHNGFVYNADLPERCHQILNGTLPENAKAQVMEMIQAANNGTAVATEGLQEFALKYIQVFSTGFHYAFLAAVFFMAISFLIYIINKHQYPADQKANAVTEAHKDQKQEIKMAADEIRQRIIALCAVFGVVIFFWMSFHQNGVSLTQFAKDYIDLSSVKLDLGFTSIVGAEMFQSINPFFVVTLTPLLLFIFGFLKKRNMEPSTPKKIVIGMFIAALAFVVMAIGSMGLPTFEERNAGVEFTKVSPWLMVLTYMILTIAELFISPMGISFVSKVAPPHLQGIMQGLWLCATAVGNSLLFVGMILYESLSISATWIVFTCACALSMLVMLSMVKWLERVAK | failed
MALPQLSIWQPGDGLRKIKYKYHVCLIVIFSVLIRLLFLTDRYLWCDEASSVLISRHSVDNLLFHAAFDVHPPLYYLLLHDWIILLGDSIAAVRSLSLLFGILTVVLVIALTRWLANERTALLAGWFAALMPMAVHYSQETRMYALMGMLTLAAALALMMWIKTPTHNRYLVAYALLMTFSFYTHYFTLFTLIAHWIAVTILSCQSHKTACYLKLPGWWFANLAIAVAYLPWLPVLFNLLTHLAQLRAGNDIGWIPPVTWRDLPAMYWHFFTGNNGQGFPSFILWLAVGGFIGTVGRISLYNGEYERYQLILFCNLVIPVMLVFIISWWMPLFIDRYFFFSSLSIPPLLAVLLTRAKKAVCGFWFILFTLLFGYGSYHNNPEHIDEFKPLVNYINTRHQPNDAVVVSKMFDYLSYVYYNKRDYRTFLYTPPNAHGTSGRPNAYGFGSLFYAQADQTYIDTLTTLSKSYHRVWLVSGGNFSQDYPLPSEWQNIAKFRSGRFQVQLFVIPTQQARQMQ | failed
MSFSTEIEVRFKHCDPAGIVFFPRYFEMINDVVEDWFANDLGCPFHELVKENGAPTAQIQARFTAPSLHGDVLSFRLTPTRIGNSSLDYDLTAHCGDELRLRATATLVHVARLGRSQPWPQAIRERVAAQIDSALEHHHHHH | failed
MTNLELSGSQSYLNDESTANLSSLAGKFLVQFWGVRGLIPTPSSNTSRYGGNTACVEMQVAGKRLIFDGGTGLRILGKAWQHLQQPLEAHLFFTNSQSNRIQGFPFFAPAFIAGNCFHIYGGAASNGASIKQCLCDQMLQPHFPYPLQVMQSELQFYPLTPDSEVKLDDVTIRTALINQTQRSIGYRVTWQEYSVAYVTDLNMSAEQGEREQVLQIIQDVDLLIANATYTPPTSHDHESVDLLWQAAVEMAQKAGVRKLIISHHHPDDHDDFLDQVEKEVQSTFSDALLACEGLALPVFLEHHHHHH | not failed

Reference: a protein production outcome set (Wang et al. 2014)
